This note sets out measurements from the supplement of paper PMC10567573.

The data set can be described thus: protein stability index of a GFP-peptide fusion (GPS, HEK-293T) (PSI 1-6); higher = more stable. Conditions: c terminus: a fixed tail appended.

± gives the standard deviation.
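Also: 24-mer peptide tiles fused after GFP, lentivirally expressed, FACS-sorted into six equal bins by GFP/DsRed ratio, decoded by Illumina sequencing, PSI is the read-weighted mean bin number.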

As to FLDLERPPTTPQNEEIRAVGRLKR [MFF], the protein stability index (treatment: MLN4924 1 uM, 8 h) came out at 4.07 ± 0.3.

In turn, ETAGQKPLSVHRPPTSGCLGPVPR [TSPAN10] yielded a protein stability index (treatment: DMSO) of 4.25 ± 0.46 and a protein stability index (treatment: MLN4924 1 uM, 8 h) of 4.22 ± 0.19. For MLFFLPPGQHLSDYSQLNESTTKE [FBXO34], the protein stability index (treatment: DMSO) stood at 2.6 ± 0.25 and the protein stability index (treatment: MLN4924 1 uM, 8 h) turned out to be 2.61 ± 0.24. For GASHVLALSTERELFAWGRGDSGR [NEK8] the same measures were 3.38 ± 0.31 and 3.42 ± 0.26. For NQEDAIHFHRTLKEACDQHGPDLY [CPOX] the same measures were 4.33 ± 0.21 and 4.47 ± 0.15. For GFKHRLWVYSGRRGVHCWVCDESV [PRIM1] the same measures were 2.81 ± 1.4 and 2.31 ± 0.59. As for EVGDPAPLGAGNLGPELIKESNAN [DPCD], the protein stability index came to 5.31 ± 0.31 (treatment: DMSO) and 5.28 ± 0.1 (treatment: MLN4924 1 uM, 8 h). The sequence VPKNYVVVLSDGPALHPAHAPQIS [NCK2] gave a protein stability index (treatment: DMSO) of 2.42 ± 0.17 and a protein stability index (treatment: MLN4924 1 uM, 8 h) of 2.61 ± 0.31. On the same counts, the results for RWGYVAMKFAQVFGCFFYVYYIFE [SOAT1] are 3.17 ± 0.22 and 3.18 ± 0.39. For RKLFGQESGPSAEKYSVATQLFIG [FUNDC2], the protein stability index runs as follows: (treatment: DMSO) 2.61 ± 0.18; (treatment: MLN4924 1 uM, 8 h) 2.47 ± 0.26. On the same counts, the results for LVQVTLLDTVELATYCVRTFALYK [PTPRD] are 3.1 ± 0.49 and 2.97 ± 0.81. On the same counts, the results for SMAKEVIAKELSKTYQETPEIDMF [ZBED1] are 4.11 ± 0.21 and 4.05 ± 0.18. On the same counts, the results for CRCKNSNTVYCKLESCPSRGQGKP [SPRY1] are 3.66 ± 0.59 and 3.77 ± 0.29. Sequence DVHELFLQMAVLVEKQADTLNVIE [STX11] came in with a protein stability index (treatment: DMSO) of 2.2 ± 0.16 and a protein stability index (treatment: MLN4924 1 uM, 8 h) of 2.27 ± 0.27. In the case of QLVRYSADGLLQLGPLGSTAFLPD [GALNT9], the protein stability index by setting is: (treatment: DMSO) 2.33 ± 0.27; (treatment: MLN4924 1 uM, 8 h) 2.67 ± 0.3.

Regarding WILFPLLGCYAVYSLLYLEHKGWY [CLPTM1], the protein stability index (treatment: DMSO) was determined as 2.9 ± 0.28 and the protein stability index (treatment: MLN4924 1 uM, 8 h) worked out at 3.4 ± 0.072. For MTTSIRQFTSSSSIKGSSGLGGGS [KRT17] the same measures were 3.58 ± 0.11 and 3.39 ± 0.43.

Take LELLDKIERSKIVSTMRCKTRQKS [PPEF2]: the protein stability index was found to be 3.54 ± 0.43 (treatment: DMSO) and 3.73 ± 0.074 (treatment: MLN4924 1 uM, 8 h). For DRGPKGEKGEKGDRAGDASKDILL [SCARA5] the same measures were 5.35 ± 0.27 and 4.69 ± 0.49. On the same counts, the results for GVILHSLKTQSLEGKRKAFYTCAS [OR4A15] are 2.48 ± 0.27 and 2.19 ± 0.27. For KEAGLSQSHDDLSNATATPSVRKK [C2CD2L], the protein stability index worked out at 5.44 ± 0.19 (treatment: DMSO) and 5.53 ± 0.28 (treatment: MLN4924 1 uM, 8 h). On the same counts, the results for QHAALGGTATRQNNWPPLPSFCPV [SCAMP3] are 3.33 ± 0.28 and 3.39 ± 0.37.
